Laboratory results published in PMC10293810.

Molecular target: T1, TREX1 catalytic core (murine) (UniProt Q91XB0)
T1 sequence: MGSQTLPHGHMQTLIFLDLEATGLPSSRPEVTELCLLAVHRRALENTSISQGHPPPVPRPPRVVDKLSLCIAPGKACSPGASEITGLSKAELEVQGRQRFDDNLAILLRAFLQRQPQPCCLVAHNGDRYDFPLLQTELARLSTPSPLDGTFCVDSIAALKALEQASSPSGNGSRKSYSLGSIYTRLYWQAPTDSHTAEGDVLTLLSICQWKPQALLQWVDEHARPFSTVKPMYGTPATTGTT
Experiment: fluorescence polarization
Conditions: FP with 5 nM ligand at 25 C (some FPCD at 4 C); buffer for MS2-CP (BB6): 100 mM Tris pH 7.5, 10 mM MgCl2, 80 mM KCl, 0.1 mg/mL BSA; other buffers not in …

GAAGTGCCCGTGACGCGCGCGACGCCAGCCGACGAAGGCGGGACCCAGAGCGCGCGCCGT (double strand) [ds-[F]d(N)60]
Kd: 0.03 µM
